Experimental data: patent US20140178389A1 (AbbVie / Abbott, published 2014)

T1: recombinant cynomolgus IL-1β (cynomolgus, UniProt P79182 117-268)
T1 construct: It was biotinylated in the ELISA and in the yeast display experiments; also called Cyno IL-1β; Cyno IL-1beta
T1 sequence (looked up): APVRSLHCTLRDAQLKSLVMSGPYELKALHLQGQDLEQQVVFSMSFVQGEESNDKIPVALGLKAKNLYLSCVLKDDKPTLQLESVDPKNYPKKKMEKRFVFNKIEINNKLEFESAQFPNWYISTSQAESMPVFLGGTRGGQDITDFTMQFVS


How the values were obtained:
[1] = target: T1, recombinant cynomolgus IL-1β; assay: indirect ELISA: mAb captured on goat anti-human IgG, biotinylated IL-1β titrated
Description: (§1) An indirect ELISA was performed to assess the relative affinity of the affinity matured h1B12.1 mAbs to a human chimeric version of the murine 1B12 mAb. An ELISA plate was coated with goat anti-human IgG (Jackson Immunoresearch cat#109-005-098) at 0.5 ug/mL overnight. The plate was blocked with 5% milk for 1 hour and washed three times with TPBS. Affinity-matured h1B12.1 antibodies and human IgG control (Sigma cat#12511) were incubated on the plate for 30 min at 0.2 μg/mL and then the plates were washed three times. A titration of biotinylated human IL-1β or biotinylated cyno IL-1β was added to the plate, starting at 10 nM and decreasing in concentration following a series of 1:3 dilutions. Binding of biotinylated IL-1β was detected with a 1:10000 dilution of peroxidase-conjugated streptavidin (Jackson Immunoresearch cat#016-030-084) and TMB substrate (Invitrogen). The data were fit in Graphpad prism to determine the EC₅₀ values.

recombinant human IL-1β = target: T2, recombinant human IL-1β (human, UniProt P01584 117-269); assay: as above
T2 construct: It was biotinylated in the ELISA and in the yeast display experiments; also called Hu IL-1beta; huIL-1b
Description: as §1

EC50 [1] [nM]	EC50 (recombinant human IL-1β) [nM]	Binder
0.026	0.031	h1B12-AM1, affinity-matured h1B12.1 IgG1/k mut (234,235) mAb (scFv clone 13) (antibody, V domains shown, also called PR-1354589) VH: EVQLQESGPGLVKPSETLSLTCTVSGFSLSDYGVSWIRQPPGKGLEWIGLIWGSGDTYYNSPLKSRLTISKDNSKSQVSLKLSSVTAADTAVYYCAKQTNIWAYDLYSMDYWGQGTLVTVSS VL: DIQMTQSPSSLSASVGDRVTITCQTSTDIDDDLNWYQQKPGKAPKLLISLASTLRPGVPSRFSGSGSGTDFTFTISSLQPEDFATYYCLQSDRLPLTFGQGTKLEIKR
0.034	0.026	h1B12-AM2, affinity-matured h1B12.1 IgG1/k mut (234,235) mAb (scFv clone 21) (antibody, V domains shown, also called PR-1354591) VH: EVQLQESGPGLVKPSETLSLTCTVSGFSLSEFGVSWIRQPPGKGLEWIGLIWGGGDTYYNSPLKSRLTISKDNSKSQVSLKLSSVTAADTAVYYCAKQRNLWAYDLYGMDYWGQGTLVTVSS VL: DIQMTQSPSSLSASVGDRVTITCQTSQDIDMDLNWYQQKPGKAPKLLISQGSTLWPGVPSRFSGSGSGTDFTFTISSLQPEDFATYYCLQTDSFPLTFGQGTKLEIKR
0.025	0.031	h1B12-AM4, affinity-matured h1B12.1 IgG1/k mut (234,235) mAb (scFv clone A1) (antibody, V domains shown, also called PR-1354594) VH: EVQLQESGPGLVKPSETLSLTCTVSGFSLRDYGVSWIRQPPGKGLEWLGLIWGSGDTYYNSPLKSRLTISKDTSKSQVSLKLSSVTAADTAVYYCAKQTNIWGYDLYGMDYWGQGTLVTVSS VL: DIQMTQSPSSLSASVGDRVTITCQASQDIDMDLNWYQQKPGKAPKLLISQANTLPPGVPSRFSGSGSGTDFTFTISSLQPEDFATYYCLQSDWLPLTFGQGTKLEIKR
0.032	0.033	h1B12-AM3, affinity-matured h1B12.1 IgG1/k mut (234,235) mAb (scFv clone 34) (antibody, V domains shown, also called PR-1354592) VH: EVQLQESGPGLVKPSETLSLTCTVSGFSLSDYGVSWIRQPPGKGLEWIGLIWGSGDTYYNSPLKSRLTISKDTSKSQVSLKLSSVTAADTAVYYCAKQTNLWAYDLYSMDYWGQGTLVTVSS VL: DIQMTQSPSSLSASVGDRVTITCQASQDIDDDLNWYQQKPGKAPKLLISLASILRPGVPSRFSGSGSGTDFTFTISSLQPEDFATYYCLQSDSFPLTFGQGTKLEIKR
